For assay [1], the target named is T1, human B-cell activating factor (BAFF) (human, UniProt Q9Y275 134-285). In words: ELISA; equilibrium binding in solution: human BAFF at 25 pM mixed with antagonist (0.04 nM to 655.36 nM) overnight at room temperature; unbound BAFF detected by ELISA. A general note: In an ELISA, binding on a coated surface is turned into a signal by an enzyme label.
The target of assay [2] is T1, human B-cell activating factor (BAFF).
Assay [3] shares this target. In words: cell-based or functional assay.

Like-named read-outs stand apart in the source and are kept apart here.

For orientation: Kd means the free concentration of one partner at which half of the binding sites on the other are occupied at equilibrium, for simple one-to-one binding. Read a low Kd as higher affinity.

T1 sequence (Q9Y275 134-285): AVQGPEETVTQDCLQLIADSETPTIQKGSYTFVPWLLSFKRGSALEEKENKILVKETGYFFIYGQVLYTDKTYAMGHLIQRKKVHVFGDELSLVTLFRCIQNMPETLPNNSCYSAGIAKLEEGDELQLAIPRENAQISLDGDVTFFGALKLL

Consider “BAFF-Trap (variant B101): CRD2 of TACI, CRD of Br3 and Fc domain of human IgG1 (Fc fusion)”, for which the Kd in assay [1] turned out to be 3.62 nM. This molecule registered an IC50 of inhibition of Raji cell proliferation induced by BAFF (1 μg/ml) and anti-IgM, CCK-8, 72 h; blocks BAFF from its receptors TACI and Br3 on Raji cells in assay [2] of 50.6 nM. Take “BAFF-Trap variant B102: CRD of Br3, CRD2 of TACI and Fc domain of human IgG1 (Fc fusion)”: the IC50 of inhibition of Raji cell proliferation induced by BAFF (1 μg/ml) and anti-IgM, CCK-8, 72 h in assay [2] came to 165 nM.

B1: TACI-Fc (Fc fusion, UniProt O14836 1-165, looked up)
chain: MSGLGRSRRGGRSRVDQEERFPQGLWTGVAMRSCPEEQYWDPLLGTCMSCKTICNHQSQRTCAAFCRSLSCRKEQGKFYDHLLRDCISCASICGQHPKQCAYFCENKLRSPVNLPPELRRQRSGEVENNSDNSGRYQGLEHRGSEASPALPGLKLSADQVALVYS
Regarding B1, in assay [3], the “IC50 of inhibition of Raji cell proliferation induced by BAFF (1 μg/ml) and anti-IgM, CCK-8, 72 h” value is 69.5 nM.

The record behind these values is publication PMC6565627, “Therapeutic effects of a novel BAFF blocker on arthritis” (Signal Transduction and Targeted Therapy, 2019).
